System: MS2 coat protein
Experiment: apparent KD of MS2 coat protein; designed switch direction (-1 OFF switch, 1 ON switch): -1; higher = weaker reporter binding
Procedure, shortened: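 The reported apparent KD is a per-design median over clusters, from curve fits of normalised cluster fluorescence. Protein titrations used SNAP-549-labelled MS2 coat protein, doubled from 0.7 or 1.5 nM to 3 µM, in Tris-HCl pH 7.5 buffer with KCl, MgCl2, BSA, DTT, tRNA and Tween-20, with no input, 200 uM small-molecule ligand, or an oligonucleotide input. The RNA switches were transcribed on Illumina chips by stalled E. coli RNA polymerase.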

[1] = Eterna round: R95, input ligand: FMN 200 uM
[2] = Eterna round: R95, input ligand: microRNA oligo, concentration not stated
[3] = Eterna round: R95, input ligand: none
[4] = input ligand: microRNA oligo, concentration not stated

With “CAUACUCAAGUCAGGAUAUACAGUCGGAUACGGGUGUAGAAGGGACAUGAGGAUCACCCAUGUAGAGAGUAAAG [EX-4 Malc #23] (puzzle: Brourd's mod of Exclusion 4)” the “apparent KD of MS2 coat protein” value [1] was 87 nM, the “apparent KD of MS2 coat protein” value [2] was 31.1 nM and the “apparent KD of MS2 coat protein” value [3] was 53.8 nM.

In the case of “CAUAUGUUAGGAUAUGCACAGAUCUCCGAAAGGAGAUCUGUGCAGAAGGAACAUGAGGAUCACCCAUGUUGAUG [Mod of Brourd 17 - Jieux - Exclusion 4] (Eterna round: R97, puzzle: Exclusion 4)”, the “apparent KD of MS2 coat protein” value (input ligand: FMN 200 uM) is reported as 176 nM and the “apparent KD of MS2 coat protein” value (input ligand: none) is reported as 34.2 nM.

For “CAUGAGGGAGGAUAUACAUGAGGAUCACCCAUGUAACUGGGAGUAGUUCUUCGUAGUCGUAGAAGGCCUGAGGG [Eternabot (L1) Solution 14] (Eterna round: R97, puzzle: Exclusion 3)”, the “apparent KD of MS2 coat protein” value (input ligand: FMN 200 uM) was 242 nM and the “apparent KD of MS2 coat protein” value (input ligand: none) was 723 nM.

“CAUGAUCUUCGGAUCAUGUACAUGAGGAUCACCCAUGUGACGAGUUACAUGAAAAACAAGCUUUUUGCUCGUCUUAU [Sensor v3 - Turn-off variant 1 - 9] (puzzle: Sensor v3, turn-off variant 1)” was tested, and the “apparent KD of MS2 coat protein” value [1] was 42.1 nM, the “apparent KD of MS2 coat protein” value [2] was 121 nM and the “apparent KD of MS2 coat protein” value [3] was 49.8 nM.

In the case of “CAUGAUUGGGAAGGAUAUUGACCUAGUUAGCGCCGAGAAGGUCCCUGUCACAUGAGGAUCACCCAUGUGAGUCUGGUGUUCGAG [Ex NG1 #95] (Eterna round: R96, puzzle: Exclusion NG 1)”, the “apparent KD of MS2 coat protein” value (input ligand: FMN 200 uM) is reported as 29.7 nM, the “apparent KD of MS2 coat protein” value [4] is reported as 17.7 nM and the “apparent KD of MS2 coat protein” value (input ligand: none) is reported as 21.6 nM.

For “CAUGAUUUUCGGAAAAUGUACAUGAGGAUCACCCAUGUGACGAGUUACAUGAAAAACAAGCUUUUUGCUCGUCUUAU [Sensor v3 - Turn-off variant 1 - 11] (puzzle: Sensor v3, turn-off variant 1)”, the “apparent KD of MS2 coat protein” value [1] was 102 nM, the “apparent KD of MS2 coat protein” value [2] was 24.8 nM and the “apparent KD of MS2 coat protein” value [3] was 188 nM.

For “CAUGUGCGAAAGGAUAUGGCCCGCGGAUCAGCUCCAGAAGGUUCGACAUGAGGAUCACCCAUGUGAUCUGGUAA [Eternabot (L1) Solution 61] (Eterna round: R97, puzzle: Exclusion 6)”, the “apparent KD of MS2 coat protein” value (input ligand: FMN 200 uM) was 139 nM and the “apparent KD of MS2 coat protein” value (input ligand: none) was 369 nM.

“CAUGUGUUAGGAUAUGCACAGAUCUCCUAAUGGAGAUCUGUGCAGAAGGAACAUGAGGAUCACCCAUGUUGAUG [Mod of Brourd 13 - Jieux - Exclusion 4] (Eterna round: R97, puzzle: Exclusion 4)” was tested, and the “apparent KD of MS2 coat protein” value (input ligand: FMN 200 uM) was 129 nM and the “apparent KD of MS2 coat protein” value (input ligand: none) was 35.4 nM.

With “CAUUAACAUGAGGAUCACCCAUGUGAGGAUAUGGAUACAUAAUACUACUACAUAAAUACCAGAAGGCGCAUACU [Maybaline] (puzzle: Exclusion 1)” the “apparent KD of MS2 coat protein” value [1] was 31.4 nM, the “apparent KD of MS2 coat protein” value [2] was 28 nM and the “apparent KD of MS2 coat protein” value [3] was 55.1 nM.

With “CAUUACUGCAAGCUUUGGGACAUGAGGAUCACCCAUGUUCGUCUUAUUGAUCUAGGUACGCUGACGUACCUAGAUCU [JL-sv1-2.27 Brourd mod] (puzzle: Sensor v3, turn-off variant 1)” the “apparent KD of MS2 coat protein” value [1] was 17 nM, the “apparent KD of MS2 coat protein” value [2] was 28.9 nM and the “apparent KD of MS2 coat protein” value [3] was 15.4 nM.

With “CCAAGCUUAUUCAUUAACCACAUGAGGAUCACCCAUGUCUAGGCAAUUAUGACUUGCCCAUCAGGUGCUCGUCUUAU [Sensor-V1 #33] (Eterna round: R97, puzzle: Sensor, turn-off variant 1)” the “apparent KD of MS2 coat protein” value (input ligand: FMN 200 uM) was 68.7 nM and the “apparent KD of MS2 coat protein” value (input ligand: none) was 72.3 nM.

For “CCAAGCUUGUUCAUUAUCCACAUGAGGAUCACCCAUGUCUUGGCAAUUAUGACCUGCCCGUCAGGAGCUCGUCUUAU [Sensor-V1 #37] (Eterna round: R97, puzzle: Sensor, turn-off variant 1)”, the “apparent KD of MS2 coat protein” value (input ligand: FMN 200 uM) was 316 nM and the “apparent KD of MS2 coat protein” value (input ligand: none) was 346 nM.

With “CCAAGCUUUUUCAUUAACAACAUGAGGAUCACCCAUGUGUAAGCAAUUAUGUUUGGGCUCUUUAGUGCUCGUCUUAU [JR_STOV1_Sub042] (Eterna round: R97, puzzle: Sensor, turn-off variant 1)” the “apparent KD of MS2 coat protein” value (input ligand: FMN 200 uM) was 17.4 nM and the “apparent KD of MS2 coat protein” value (input ligand: none) was 16.7 nM.

For “CCAAGCUUUUUCAUUAACAACAUGAGGAUCACCCAUGUUUAAGCUAUUACUUUUGGGCUCUUUAGUGCUAGUCUUAU [JR_STOV1_Sub039] (Eterna round: R97, puzzle: Sensor, turn-off variant 1)”, the “apparent KD of MS2 coat protein” value (input ligand: FMN 200 uM) was 18.6 nM and the “apparent KD of MS2 coat protein” value (input ligand: none) was 19.4 nM.

In the case of “CCACGACAUGAGGAUCACCCAUGUGAGGAUAUGGCCUGAAAAGCGUGAGCAGUAUCAAUCAGAAGGCGCGUGGG [salish99_ex1_r4_061] (Eterna round: R97, puzzle: Exclusion 1)”, the “apparent KD of MS2 coat protein” value (input ligand: FMN 200 uM) is reported as 116 nM and the “apparent KD of MS2 coat protein” value (input ligand: none) is reported as 76.4 nM.

In the case of “CCAGAUGCAGGAUAUGUAAAAUUUGACAUGAGGAUCACCCAUGUAGAUCCUGAAUUUCCUGCAGAAGGGCAUCUGG [Mat - Exclusion 5 - Eli Mod - D20] (Eterna round: R97, puzzle: Exclusion 5)”, the “apparent KD of MS2 coat protein” value (input ligand: FMN 200 uM) is reported as 288 nM and the “apparent KD of MS2 coat protein” value (input ligand: none) is reported as 105 nM.

“CCAGCAAAUGUAAGGAUAUGCUGGUCCUUGGAUCAGCAGAAGGUACAUGAGGAUCACCCAUGUAGGUAAGCUGG [Eli bmx4 4.63] (Eterna round: R97, puzzle: Brourd's mod of Exclusion 4)” was tested, and the “apparent KD of MS2 coat protein” value (input ligand: FMN 200 uM) was 118 nM and the “apparent KD of MS2 coat protein” value (input ligand: none) was 23.5 nM.

In the case of “CCAGCGUAUGUUAGGAUAUGCUGGUCCUUGGAUCAGCAGAAGGAACAUGAGGAUCACCCAUGUAGAAUCGUUGG [Mod of JL 15 - Jieux - Brourd's mod of Exclusion 4] (Eterna round: R97, puzzle: Brourd's mod of Exclusion 4)”, the “apparent KD of MS2 coat protein” value (input ligand: FMN 200 uM) is reported as 35 nM and the “apparent KD of MS2 coat protein” value (input ligand: none) is reported as 20.3 nM.

For “CCAGGCUGUGUGAGGAUAUGCUGGUCCUUGGAUCAGCAGAAGGCACAUGAGGAUCACCCAUGUGAAAAGCUUGG [Mat - Exclusion 4 - JL Mod - D91] (puzzle: Brourd's mod of Exclusion 4)”, the “apparent KD of MS2 coat protein” value [2] was 16.2 nM.

In the case of “CCAGUGUAAGGAUAUGUAUACGUCUCUCUGGUAUGAGGGCGGCAGAAGGUACAUGAGGAUCACCCAUGUCAUAU [Eternabot (L2) Solution 94] (Eterna round: R97, puzzle: Exclusion 4)”, the “apparent KD of MS2 coat protein” value (input ligand: FMN 200 uM) is reported as 37.3 nM and the “apparent KD of MS2 coat protein” value (input ligand: none) is reported as 22.5 nM.

With “CCAUAGGGAGGAUAUCCAAUAUAUGACAUGAGGAUCACCCAUGUUUCCACUCGUACCUCCGGAGAAGGCCCAUACC [Ex5 #9] (Eterna round: R97, puzzle: Exclusion 5)” the “apparent KD of MS2 coat protein” value (input ligand: FMN 200 uM) was 22 nM and the “apparent KD of MS2 coat protein” value (input ligand: none) was 27 nM.

With “CCAUGUUAGCAGGAUAUGCUAUUAAUCUUUUAUGCAGAAGGGCUUACAUGAGGAUCACCCAUGUAUUAAGUCUU [JR_E6_Sub076] (puzzle: Exclusion 6)” the “apparent KD of MS2 coat protein” value [2] was 11.9 nM.

With “CCCACAAGCUUUUUGCUCGACAUGAGGAUCACCCAUGUUGAAUGGGUUAGAUGUGUGUGAAACAUAUAUAUUUACCU [-24.2, -47 kcal, A 27%] (Eterna round: R97, puzzle: Sensor, turn-off variant 1)” the “apparent KD of MS2 coat protein” value (input ligand: FMN 200 uM) was 25.5 nM and the “apparent KD of MS2 coat protein” value (input ligand: none) was 26.4 nM.

In the case of “CCCACAGGCUUUUUGCUCGACAUGAGGAUCACCCAUGUUGAAUGGGUUGUGUGUGUGUGAUACAUAUAUAUGGUCCU [-25.5, -50.5 kcal, A 21%] (Eterna round: R97, puzzle: Sensor, turn-off variant 1)”, the “apparent KD of MS2 coat protein” value (input ligand: FMN 200 uM) is reported as 142 nM and the “apparent KD of MS2 coat protein” value (input ligand: none) is reported as 158 nM.

“CCCAGUUAGGAAGGAUAUUGUACAUGAGGAUCACCCAUGUAAUAAAUGAGGAUCACGGAUGUAUACAAGAAGGUCCGGAUAGGC [Ostracism 9 - Jieux - Exclusion NG 2] (Eterna round: R96, puzzle: Exclusion NG 2)” was tested, and the “apparent KD of MS2 coat protein” value [4] was 59.3 nM.

“CCCAGUUAGGAAGGAUAUUGUACAUGAGGAUCACCCAUGUAAUAAAUGAGGAUCUCGGAUGUAUACAAGAAGGUCCGGAUAGGC [Ostracism 10 - Jieux - Exclusion NG 2] (Eterna round: R96, puzzle: Exclusion NG 2)” was tested, and the “apparent KD of MS2 coat protein” value [4] was 58.5 nM.

“CCCAUGCCUGAGGAUAUGCUGUACAAAAGUACUGCAGAAGGCGGGACAUGAGGAUCACCCAUGUGGCGAAAGCC [Omei Ex G6] (Eterna round: R97, puzzle: Exclusion 6)” was tested, and the “apparent KD of MS2 coat protein” value (input ligand: FMN 200 uM) was 67 nM and the “apparent KD of MS2 coat protein” value (input ligand: none) was 326 nM.

“CCCAUGUCAGGAUAUUAAUUGGACGGGAAAUCCCGCCCACUUGAGAAGGGACAUGAGGAUCACCCAUGUAAAAC [Esatedbe] (Eterna round: R97, puzzle: Exclusion 4)” was tested, and the “apparent KD of MS2 coat protein” value (input ligand: FMN 200 uM) was 54.7 nM and the “apparent KD of MS2 coat protein” value (input ligand: none) was 385 nM.

For “CCCGGGUUUGUGAGGAUAUCGGGCCCGAAAGGGCCCGAGAAGGCACAUGAGGAUCACCCAUGUAAGGGCCCGGG [-42.9, -40.9 kcal, A 23%, 0-5cbis] (Eterna round: R97, puzzle: Brourd's mod of Exclusion 4)”, the “apparent KD of MS2 coat protein” value (input ligand: FMN 200 uM) was 29.3 nM and the “apparent KD of MS2 coat protein” value (input ligand: none) was 26.1 nM.

“CCCGUCGAUGUAGGAUAUGCCCGGGUCUCCCGGGCAGAAGGACAUGAGGAUCACCCAUGUUCAUGAGGAUCACCCGUGAAUGGG [Double but mutated MS2] (Eterna round: R96, puzzle: Exclusion NG 1)” was tested, and the “apparent KD of MS2 coat protein” value (input ligand: FMN 200 uM) was 13.1 nM, the “apparent KD of MS2 coat protein” value [4] was 13 nM and the “apparent KD of MS2 coat protein” value (input ligand: none) was 16.3 nM.

For “CCCGUCGAUGUAGGAUAUGCCCGGGUCUCCCGGGCAGAAGGACAUGAGGAUCACCCAUGUUGAUGAGGAUCACCCAUCAAUGGG [Double but mutated MS2] (Eterna round: R96, puzzle: Exclusion NG 1)”, the “apparent KD of MS2 coat protein” value (input ligand: FMN 200 uM) was 16.9 nM, the “apparent KD of MS2 coat protein” value [4] was 15.8 nM and the “apparent KD of MS2 coat protein” value (input ligand: none) was 20.7 nM.

“CCCGUGUUAGGAUAUAUGGAAGAGCGGACGGGCGCUCCAAGGUAGAAGGAACAUGAGGAUCACCCAUGUAAUAA [Teleerdion] (Eterna round: R97, puzzle: Exclusion 4)” was tested, and the “apparent KD of MS2 coat protein” value (input ligand: FMN 200 uM) was 42.6 nM and the “apparent KD of MS2 coat protein” value (input ligand: none) was 28.6 nM.

“CCCUCACAUGAGGAUCACCCAUGUCAGGAUAUCUCAGUGCGUCCACACGGACACAUCAAGAGAAGGGACAAAAC [Maceedesbi] (Eterna round: R97, puzzle: Exclusion 1)” was tested, and the “apparent KD of MS2 coat protein” value (input ligand: FMN 200 uM) was 26.3 nM and the “apparent KD of MS2 coat protein” value (input ligand: none) was 18.6 nM.

From the supplement of paper PMC9170038
